Laboratory results: US20240101635A1 (AKSTON BIOSCIENCES, published 2024)
Where two headings read alike, the source gives them in different places.

Key:
biotinylated canine FcRn = biotinylated canine FcRn (canine, UniProt A0A8I3PFR8 25-347, biotinylated (site not stated)); assay: ELISA pH 5.5, fusion protein coated, biotinylated canine FcRn titrated
Protocol: Insulin-Fc fusion proteins comprising Fc fragments of canine or feline origin were diluted to 10 μg/ml in sodium bicarbonate pH 9.6 buffer and coated in duplicate on Maxisorb ELISA plate strips for 1-2 hours at RT. The strips were then washed 4 times with PBST (PBS/0.1% Tween-20) buffer and blocked with Superblock blocking reagent (ThermoFisher). Strips for FcRn binding were then washed again twice with pH 5.5 MES/NaCl/Tween (50 mM MES/l50 mM NaCl/0.1% Tween-20) buffer before addition of the FcRn reagent (biotinylated canine FcRn; Immunitrack). […] Serial dilutions (1:3× dilutions) of biotinylated FcRn reagent were prepared in pH 5.5 MES/NaCl/Tween/10% Superblock buffer at concentrations from 1000 ng/ml to 0.45 ng/ml and loaded at 100 μL/well using a multichannel pipettor onto the strips coated with the insulin-Fc fusion protein compounds. The assay plate was then incubated for 1 hour at room temperature. FcRn binding strips were washed 4 times with pH 5.5 MES/NaCl/Tween buffer and then loaded with 100 μl/well […] diluted 1:10000 in pH 5.5 MES/NaCl/10% Superblock buffer. After incubating for 45 minutes, strips were washed again 4 times with pH 5.5 MES/NaCl/Tween buffer. TMB was finally added to reveal the bound biotinylated-canine FcRn reagent, and the color development was stopped with the ELISA stop reagent. The plate was read in an ELISA plate reader at a wavelength of 450 nm. The OD values (proportional to the binding of canine-FcRn to the insulin-Fc fusion protein test compounds) were plotted against log concentrations of FcRn added to each well to generate binding curves using GraphPad Prism software. EC50 values for each binding curve were calculated to compare between different compounds.

human insulin receptor [1] = biological target: T1, human insulin receptor (human, UniProt P06213 28-1382); assay: competition with biotinylated RHI on IM-9 cells, flow cytometry, 4 C
T1 construct: whole, on cells; Endogenous receptor on IM-9 cells; also called IR
Protocol: Cultures of IM-9 cells were centrifuged at 250×g (˜1000 rpm) for 10 min to pellet the cells. Cells were washed once with HBSS or PBS buffer, resuspended in cold FACS staining medium (HBSS/2 mM EDTA/0.1% Na-azide+4% horse serum) to a concentration of 8×10⁶ cells/mL and kept on ice or 4° C. until test solutions were made. The insulin-Fc protein was diluted in FACS buffer in 1:3 serial dilutions as 2× concentrations in 1.2 mL tubes (approx. 60 μL volume of each dilution), and the solutions were kept cold on ice until ready for pipetting.
40 μL of an IM-9 cell suspension (8×10⁶ cells/mL) was then added to each well by multichannel pipette, mixed again gently and incubated on ice for 30 min to allow competitive binding on the insulin receptor on IM-9 cells. […]
(§1) The V-bottom plates containing cells were then analyzed on a Guava 8-HT flow cytometer (Millipore). Biotinylated-RHI binding to insulin receptor was quantitated by the median fluorescence intensity (MFI) of the cells on the FACS FL-2 channel for each concentration of the test compound. […] The % inhibition by test compounds of biotinylated-RHI binding on IM-9 cells was plotted against log concentrations of the test compound, and the resulting IC50 values were calculated using GraphPad Prism (GraphPad Software, La Jolla, CA) for the test compounds.

human insulin receptor [2] = biological target: T1, human insulin receptor; assay: as above; remark: listed apart in the source
Protocol: (§2) 40 μL of an IM-9 cell suspension (8×10⁶ cells/mL) was then added to each well by multichannel pipette, mixed again gently and incubated on ice for 30 min to allow competitive binding on the insulin receptor on IM-9 cells. Cells were then washed twice with 275 μL of ice-cold FACS wash buffer (HBSS/2 mM EDTA/0.1% Na-azide+0.5% horse serum) by centrifuging the V-bottom plate at 3000 rpm for 3 min and aspirating the supernatant. Cells were then resuspended in 40 μL of FACS staining medium containing 1:100 diluted Streptavidin-PE (Life Technologies) for 20 min on ice. Cells were then washed once with 275 μL of ice-cold FACS buffer and finally fixed with 3% paraformaldehyde for 10 min at room temp. Cells were then washed once with 275 μL of ice-cold FACS buffer and resuspended in 250 μl of FACS buffer for analysis.
as §1, with “compounds. […]” for “compounds.”

human insulin receptor [3] = biological target: T1, human insulin receptor; assay: as above; remark: listed apart in the source
Protocol: as §2
The V-bottom plates containing cells were then analyzed on a Guava 8-HT flow cytometer (Millipore). Biotinylated-RHI binding to insulin receptor was quantitated by the median fluorescence intensity (MFI) of the cells on the FACS FL-2 channel for each concentration of the test compound. Control wells were labeled only with biotinylated-RHI and were used to calculate the percent (%) inhibition resulting from each test compound concentration. The % inhibition by test compounds of biotinylated-RHI binding on IM-9 cells was plotted against log concentrations of the test compound, and the resulting IC50 values were calculated using GraphPad Prism (GraphPad Software, La Jolla, CA) for the test compounds. Lower IC50 values of the test compound therefore indicate greater levels of biotinylated-RHI inhibition at lower concentrations indicating stronger binding of the insulin-Fc fusion protein to the insulin receptor. A control compound, such as unlabeled recombinant human insulin (RHI) was also used as an internal standard to generate an RHI IC50 against which a given compound IC50 could be ratioed (IC50(compound)/IC50(RHI)). Lower IC50 ratios have more similar binding to RHI (stronger binding to insulin receptor), while higher IC50 ratios have weaker binding to the insulin receptor relative to RHI.

[4] = biological target: T2, biotinylated recombinant human Fc(gamma) receptor I (human, UniProt P12314 16-288, biotinylated (site not stated)); assay: ELISA, fusion protein coated, biotinylated rhFc(gamma)RI at 3000 ng/mL, pH 7.4
T2 construct: Bought reagent, used as surrogate for canine/feline Fc(gamma)RI; also called rhFc(gamma) receptor I; Fc(gamma)RI
Protocol: The binding of insulin-Fc fusion proteins to the Fc(gamma) receptor I at pH 7.4 was conducted using an ELISA assay as follows. Since neither canine nor feline Fc(gamma) receptor I was not commercially available, human Fc(gamma) receptor I (i.e., rhFc(gamma) receptor I) was used as a surrogate mammalian receptor. Insulin-Fc compounds were diluted to 10 μg/mL in sodium bicarbonate buffer at pH 9.6 and coated on Maxisorp (Nunc) microtiter plates overnight at 4° C., after which the microplate strips were washed 5 times with PBST (PBS/0.05% Tween-20) buffer and blocked with Superblock blocking reagent (ThermoFisher). Serial dilutions of biotinylated rhFc(gamma) receptor I (recombinant human Fc(gamma)R-I; R&D Systems) were prepared in PBST/10% Superblock buffer from 6000 ng/mL to 8.2 ng/mL and loaded at 100 μL/well onto the microplate strips coated with insulin-Fc fusion protein. The microtiter plate was incubated for 1 hour at room temperature after which the microplate strips were washed 5 times with PBST and then loaded with 100 μL/well of streptavidin-HRP diluted 1:10000 in PBST/10% Superblock buffer. After incubating for 45 min, the microplate strips were washed again 5 times with PBST. TMB was added to reveal the bound Fc(gamma) receptor I proteins and stopped with ELISA stop reagent (Boston Bioproducts). The plate was read in an ELISA plate reader at 450 nm, and the OD values (proportional to the binding of rhFc(gamma) receptor I to insulin-Fc protein) were plotted against log concentrations of rhFc(gamma) receptor I added to each well to generate binding curves using GraphPad Prism software.
Finally, select compounds were tested for their likelihood to interact with the immune system by measuring their Fc(gamma) receptor binding activity according to the procedure of Example 8. Table 19 compares the Fc(gamma) receptor I binding of these insulin-Fc fusion proteins with the Fc(gamma) receptor binding of the insulin-Fc fusion protein of SEQ ID NO: 52.

T2 sequence (P12314 16-288 limits assumed): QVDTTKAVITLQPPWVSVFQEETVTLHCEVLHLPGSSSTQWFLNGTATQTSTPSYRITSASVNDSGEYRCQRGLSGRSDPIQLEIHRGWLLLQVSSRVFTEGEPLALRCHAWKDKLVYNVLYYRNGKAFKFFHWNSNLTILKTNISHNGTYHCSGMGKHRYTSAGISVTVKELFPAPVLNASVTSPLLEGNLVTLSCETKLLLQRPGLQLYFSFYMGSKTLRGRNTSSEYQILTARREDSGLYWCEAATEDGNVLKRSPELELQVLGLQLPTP
T1 sequence (P06213 28-1382): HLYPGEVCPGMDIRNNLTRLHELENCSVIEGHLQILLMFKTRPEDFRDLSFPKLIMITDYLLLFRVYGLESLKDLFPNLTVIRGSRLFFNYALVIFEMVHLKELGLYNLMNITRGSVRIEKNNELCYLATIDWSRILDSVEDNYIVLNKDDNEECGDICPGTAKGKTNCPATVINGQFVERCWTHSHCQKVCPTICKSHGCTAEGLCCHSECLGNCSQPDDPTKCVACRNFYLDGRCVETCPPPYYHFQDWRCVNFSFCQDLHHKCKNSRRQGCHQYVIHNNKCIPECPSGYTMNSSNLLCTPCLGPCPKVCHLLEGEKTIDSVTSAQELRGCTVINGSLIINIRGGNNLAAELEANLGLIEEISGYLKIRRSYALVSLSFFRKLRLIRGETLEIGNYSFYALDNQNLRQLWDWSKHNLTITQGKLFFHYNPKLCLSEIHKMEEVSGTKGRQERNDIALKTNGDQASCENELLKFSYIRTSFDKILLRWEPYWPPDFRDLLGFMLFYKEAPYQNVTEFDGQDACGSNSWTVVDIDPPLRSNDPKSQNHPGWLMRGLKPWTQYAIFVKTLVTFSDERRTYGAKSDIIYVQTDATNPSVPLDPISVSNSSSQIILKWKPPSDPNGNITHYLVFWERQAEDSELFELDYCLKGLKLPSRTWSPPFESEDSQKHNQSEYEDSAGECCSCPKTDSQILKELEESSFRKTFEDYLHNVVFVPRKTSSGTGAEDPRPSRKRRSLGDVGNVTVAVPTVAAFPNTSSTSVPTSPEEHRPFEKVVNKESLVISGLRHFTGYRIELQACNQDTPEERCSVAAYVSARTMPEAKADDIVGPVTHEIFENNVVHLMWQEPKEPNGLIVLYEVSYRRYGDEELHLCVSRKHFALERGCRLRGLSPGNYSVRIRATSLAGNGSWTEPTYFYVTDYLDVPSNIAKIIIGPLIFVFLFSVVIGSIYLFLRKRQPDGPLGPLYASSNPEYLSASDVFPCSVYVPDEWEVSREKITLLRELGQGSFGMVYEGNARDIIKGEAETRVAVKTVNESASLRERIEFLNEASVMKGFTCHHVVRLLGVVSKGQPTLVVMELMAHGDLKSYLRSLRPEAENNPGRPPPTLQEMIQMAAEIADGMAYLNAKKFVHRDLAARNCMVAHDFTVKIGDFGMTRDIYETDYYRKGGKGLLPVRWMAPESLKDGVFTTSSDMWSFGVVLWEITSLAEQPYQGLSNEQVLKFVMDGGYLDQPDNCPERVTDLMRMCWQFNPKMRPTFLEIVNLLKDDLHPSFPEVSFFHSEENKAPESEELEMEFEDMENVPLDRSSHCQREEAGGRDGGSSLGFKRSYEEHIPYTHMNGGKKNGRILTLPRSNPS
Chain of biotinylated canine FcRn (A0A8I3PFR8 entry or part of it): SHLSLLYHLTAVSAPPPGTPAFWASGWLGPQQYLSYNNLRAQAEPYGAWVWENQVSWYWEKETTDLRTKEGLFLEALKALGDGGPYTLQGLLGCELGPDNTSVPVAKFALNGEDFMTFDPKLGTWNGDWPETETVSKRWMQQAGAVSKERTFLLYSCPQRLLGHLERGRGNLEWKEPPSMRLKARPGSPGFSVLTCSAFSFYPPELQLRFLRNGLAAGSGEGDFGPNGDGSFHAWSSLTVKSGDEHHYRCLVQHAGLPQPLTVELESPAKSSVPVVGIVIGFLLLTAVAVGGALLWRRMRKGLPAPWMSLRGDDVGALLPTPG

EC50 (biotinylated canine FcRn): 0.599 µg/mL
IC50 (human insulin receptor [1]): 2340 nM
IC50 (human insulin receptor [2]): 2340 nM
IC50 (human insulin receptor [3]): 2340 nM
OD450 nm Minus Assay Background [4]: 0.311 OD450
OD450 nm at a Fc(gamma)RI concentration of 3000 (ng/mL) [4]: 0.368 OD450
Ratio to SEQ ID NO: 52 [4]: 0.84 ratio
B1: insulin-Fc fusion protein of SEQ ID NO: 32 (Fc fusion)
chain: FVNQHLCGSHLVEALELVCGERGFHYGGGGGGSGGGGGIVEQCCTSTCSLDQLENYCGGGGGQGGGGQGGGGQGGGGGDCPKCPAPEMLGGPSVFIFPPKPKDTLLIARTPEVTCVVVDLDPEDPEVQISWFVDGKQMQTAKTQPREEQFNGTYRVVSVLPIGHQDWLKGKQFTCKVNNKALPSPIERTISKARGQAHQPSVYVLPPSREELSKNTVSLTCLIKDFFPPDIDVEWQSNGQQEPESKYRTTPPQLDEDGSYFLYSKLSVDKSRWQRGDTFICAVMHEALHNHYTQESLSHSPG
notes: homodimer; also called 218d
